This is an account of results in publication PMC3680461, “Diversity of Plant Methionine Sulfoxide Reductases B and Evolution of a Form Specific for Free Methionine Sulfoxide” (PLoS ONE, 2013).

The target in data set [1] is T1, GmMSRB2 (Glycine max, UniProt C6SXW1).
T1 construct: full-length, pDEST17 His-tag, E. coli BL21(DE3), purified; cytosolic (no signal peptide predicted)
T1 sequence (C6SXW1 1-138): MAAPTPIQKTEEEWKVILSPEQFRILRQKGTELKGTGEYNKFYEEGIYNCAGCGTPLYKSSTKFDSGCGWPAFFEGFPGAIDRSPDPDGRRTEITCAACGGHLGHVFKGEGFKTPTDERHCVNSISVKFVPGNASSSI
The experiment in a line: NADPH consumption, TRX-coupled. The class given is biochemical. The following applies: 25 µM yeast TRX2, 2 µM TRX reductase, 200 µM NADPH; S/R mixture used, Km given as half of measured value; read-out: Free L-MetO / Km (μM)^c. The text has this:
(§1) NADPH consumption, TRX-coupled on GmMSRB2

A further data set has as its target T2, GmMSRB4 (Glycine max, UniProt I1ME37).
T2 construct: gene LOC100784622; without predicted N-terminal chloroplast signal peptide (predicted TP length 67), pET21b His-tag, E. coli BL21(DE3), purified
T2 sequence (I1ME37 68-204): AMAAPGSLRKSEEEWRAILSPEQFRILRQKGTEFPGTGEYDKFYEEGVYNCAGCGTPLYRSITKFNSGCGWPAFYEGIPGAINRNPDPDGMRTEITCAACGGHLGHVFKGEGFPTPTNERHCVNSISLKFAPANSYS
The experiment in a line: NADPH consumption, TRX-coupled. The class given is biochemical. The following applies: 25 µM yeast TRX2, 2 µM TRX reductase, 200 µM NADPH; S/R mixture used, Km given as half of measured value; read-out: Free L-MetO / Km (μM)^c. An excerpt: (§2) NADPH consumption, TRX-coupled on GmMSRB4

Data set [2] has as its target T3, GmMSRB2 (Glycine max, UniProt C6SXW1, C68S).
T3 construct: full-length, pDEST17 His-tag, E. coli BL21(DE3), purified; cytosolic (no signal peptide predicted)
T3 sequence (C6SXW1 1-138 C68S): T1 sequence (C6SXW1 1-138) with C68S
The experiment in a line: DTT-dependent MSR activity. The class given is biochemical. The following applies: DTT as reductant.

The target of another data set is T4, GmMSRB1 (Glycine max, UniProt C6TFD8).
T4 construct: without predicted N-terminal chloroplast signal peptide (predicted TP length 45), pET21b His-tag, E. coli BL21(DE3), purified
T4 sequence (C6TFD8 46-202): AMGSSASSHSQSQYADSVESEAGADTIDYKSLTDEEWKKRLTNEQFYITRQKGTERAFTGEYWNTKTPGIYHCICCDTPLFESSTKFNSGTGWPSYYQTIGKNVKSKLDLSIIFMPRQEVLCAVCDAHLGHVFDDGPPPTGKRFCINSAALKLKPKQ
Put plainly: DTT-dependent MSR activity. The class given is biochemical. The settings on record: DTT as reductant.

Substrate in data set [3]: CC(=O)N[C@@H](CC[S+](C)[O-])C(=O)O
Put plainly: NADPH consumption, TRX-coupled. The class given is biochemical, Glycine max. The settings on record: 25 µM yeast TRX2, 2 µM TRX reductase, 200 µM NADPH.
Description: as §1

Substrate in data set [4]: CC(=O)N[C@@H](CC[S+](C)[O-])C(=O)O
Put plainly: NADPH consumption, TRX-coupled. The class given is biochemical, Glycine max. The following applies: 25 µM yeast TRX2, 2 µM TRX reductase, 200 µM NADPH.
Description: as §2
This is another data set of the same source.

Changes are numbered by the printed parent chain.

On to Free L-MetO, for which the Km at GmMSRB2 [1] worked out at 2090 µM; on GmMSRB4, 1450 µM.
As to `CN(C)c1ccc(/N=N/c2ccc(S(=O)(=O)N[C@@H](CC[S@@+](C)[O-])C(=O)O)cc2)cc1` [dabsyl-MetO], the “DTT-dependent MSR activity” value was “the C68S GmMSRB2 mutant was active towards both protein-based and free MetO” on GmMSRB2 [2]; “GmMSRB1 was two-fold more efficient than GmMSRB2 or GmMSRB4 in reducing dabsylated Met-R-O” on GmMSRB1.

B1: GmMSRB2 (Glycine max) (protein)
chain: T1 sequence (C6SXW1 1-138)
notes: full-length, pDEST17 His-tag, E. coli BL21(DE3), purified; cytosolic (no signal peptide predicted)
On to B1, for which, in data set [3], the Km was determined as 49 ± 5 µM, the kcat came to 2.04 ± 0.06 s⁻¹ and the kcat/Km was found to be 42000 M⁻¹ s⁻¹.

B2: GmMSRB4 (Glycine max) (protein)
chain: T2 sequence (I1ME37 68-204)
notes: without predicted N-terminal chloroplast signal peptide (predicted TP length 67), pET21b His-tag, E. coli BL21(DE3), purified
Take B2: in data set [4], the Km was 49 ± 6 µM, the kcat was determined as 0.24 ± 0.01 s⁻¹ and the kcat/Km worked out at 5000 M⁻¹ s⁻¹.

As usually defined, the kcat is the number of substrate molecules converted per active site and unit of time at saturation. Broadly, the kcat/Km is the second-order rate constant that governs catalysis at low substrate concentration.
